Test results reported in patent US20240226163A1 (Regeneron, published 2024).

Assays:
[1] = molecular target: HLA-A*02:01 presenting MAGE-A4 286-294 peptide (…) (human); assay: cell-based or functional assay
[2] = molecular target: HLA-A*02:01 presenting MAGE-A4 286-294 peptide (…) (human); assay: cell-based or functional assay; remark: listed apart in the source
[3] = molecular target: HLA-A*02:01 presenting PLEKHH2 790-798 peptide (…) (human); assay: cell-based or functional assay
[4] = molecular target: HLA-A*02:01 presenting NBAS 2063-2071 peptide (…) (human); assay: cell-based or functional assay
[5] = molecular target: HLA-A*02:01 presenting TEP1 2156-2164 peptide (…) (human); assay: cell-based or functional assay
[6] = molecular target: HLA-A*02:01 presenting PSME2 145-153 peptide (…) (human); assay: cell-based or functional assay
[7] = molecular target: HLA-A*02:01 presenting PCDHGC3 337-345 peptide (…) (human); assay: cell-based or functional assay
[8] = molecular target: HLA-A*02:01 presenting FN1 2182-2190 peptide (…) (human); assay: cell-based or functional assay
[9] = molecular target: T1, HLA-A*02:01 presenting HEATR5A 1925-1933 peptide (…) (human); assay: cell-based or functional assay
[10] = molecular target: HLA-A*02:01 presenting MRPL37 334-342 peptide (…) (human); assay: cell-based or functional assay
[11] = molecular target: HLA-A*02:01 presenting AOX1 795-803 peptide (…) (human); assay: cell-based or functional assay
[12] = molecular target: HLA-A*02:01 presenting CARD8 170-178 peptide (…) (human); assay: cell-based or functional assay
[13] = molecular target: HLA-A*02:01 presenting SHTN1 198-206 peptide (…) (human); assay: cell-based or functional assay
[14] = molecular target: HLA-A*02:01 presenting CNOT1 1965-1973 peptide (…) (human); assay: cell-based or functional assay
[15] = molecular target: HLA-A*02:01 presenting RABGAP1L 408-416 peptide (…) (human); assay: cell-based or functional assay
[16] = molecular target: HLA-A*02:01 presenting SMIM11A 4-12 peptide (…) (human); assay: cell-based or functional assay
[17] = molecular target: HLA-A*02:01 presenting MAGE-A4 286-294 peptide (…) (human); assay: cell-based or functional assay; remark: listed apart in the source
[18] = molecular target: T2, HLA-A*02:01 presenting PLEKHH2 790-798 peptide (…) (human); assay: flow cytometry, peptide-pulsed T2 cells;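 on S/N ratio: ratio of peak mean fluorescence intensity across a 12-point threefold antibody dilution series to the MFI with secondary antibody only, live-gated cells by flow cytometry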
T2 construct: On peptide-pulsed T2 cells; also called T2 Pulsed PLEKHH2 790-798
Protocol: (§1) Samples were run on an Intellicyt iQue flow cytometer (Intellicyt) and results were analyzed using Forecyte analysis software (Intellicyte) to calculate the mean fluorescent intensity (MFI) after gating for live cells. MFI values were plotted in Graphpad Prism using a four-parameter logistic equation over a 12-point response curve to calculate EC₅₀ values. The secondary antibody alone (i.e. no primary antibody) for each dose-response curve is also included in the analysis as a continuation of the three-fold serial dilution and is represented as the lowest dose. The signal to noise (S/N) was determined by taking the ratio of the highest MFI on the dose response curve to the MFI in the secondary alone wells.

[19] = molecular target: T3, HLA-A*02:01 presenting NBAS 2063-2071 peptide (…) (human); assay: flow cytometry, peptide-pulsed T2 cells;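 on S/N ratio: ratio of peak mean fluorescence intensity across a 12-point threefold antibody dilution series to the MFI with secondary antibody only, live-gated cells by flow cytometry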
T3 construct: On peptide-pulsed T2 cells; also called T2 Pulsed NBAS 2063-2071
Protocol: as §1

[20] = molecular target: T4, HLA-A*02:01 presenting TEP1 2156-2164 peptide (…) (human); assay: flow cytometry, peptide-pulsed T2 cells;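 on S/N ratio: ratio of peak mean fluorescence intensity across a 12-point threefold antibody dilution series to the MFI with secondary antibody only, live-gated cells by flow cytometry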
T4 construct: On peptide-pulsed T2 cells; also called T2 Pulsed TEP1 2156-2164
Protocol: as §1

[21] = molecular target: T5, HLA-A*02:01 presenting PSME2 145-153 peptide (…) (human); assay: flow cytometry, peptide-pulsed T2 cells;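 on S/N ratio: ratio of peak mean fluorescence intensity across a 12-point threefold antibody dilution series to the MFI with secondary antibody only, live-gated cells by flow cytometry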
T5 construct: On peptide-pulsed T2 cells; also called T2 Pulsed PSME2 145-153
Protocol: as §1

[22] = molecular target: T6, HLA-A*02:01 presenting PCDHGC3 337-345 peptide (…) (human); assay: flow cytometry, peptide-pulsed T2 cells
T6 construct: On peptide-pulsed T2 cells; also called T2 Pulsed PCDHGC3 337-345
Protocol: as §1

[23] = molecular target: T7, HLA-A*02:01 presenting FN1 2182-2190 peptide (…) (human); assay: flow cytometry, peptide-pulsed T2 cells
T7 construct: On peptide-pulsed T2 cells; also called T2 Pulsed FN1 2182-2190
Protocol: as §1

[24] = molecular target: T1, HLA-A*02:01 presenting HEATR5A …; assay: flow cytometry, peptide-pulsed T2 cells
Protocol: as §1

[25] = molecular target: T8, HLA-A*02:01 presenting MRPL37 334-342 peptide (…) (human); assay: flow cytometry, peptide-pulsed T2 cells
T8 construct: On peptide-pulsed T2 cells; also called T2 Pulsed MRPL37 334-342
Protocol: as §1

[26] = molecular target: T9, HLA-A*02:01 presenting AOX1 795-803 peptide (…) (human); assay: flow cytometry, peptide-pulsed T2 cells
T9 construct: On peptide-pulsed T2 cells; also called T2 Pulsed AOX1 795-803
Protocol: as §1

[27] = molecular target: T10, HLA-A*02:01 presenting CARD8 170-178 peptide (…) (human); assay: flow cytometry, peptide-pulsed T2 cells
T10 construct: On peptide-pulsed T2 cells; also called T2 Pulsed CARD8 170-178
Protocol: as §1

[28] = molecular target: T11, HLA-A*02:01 presenting SHTN1 198-206 peptide (…) (human); assay: flow cytometry, peptide-pulsed T2 cells
T11 construct: On peptide-pulsed T2 cells; also called T2 Pulsed SHTN1 198-206
Protocol: as §1

[29] = molecular target: T12, HLA-A*02:01 presenting CNOT1 1965-1973 peptide (…) (human); assay: flow cytometry, peptide-pulsed T2 cells
T12 construct: On peptide-pulsed T2 cells; also called T2 Pulsed CNOT1 1965-1973
Protocol: as §1

[30] = molecular target: T13, HLA-A*02:01 presenting RABGAP1L 408-416 peptide (…) (human); assay: flow cytometry, peptide-pulsed T2 cells
T13 construct: On peptide-pulsed T2 cells; also called T2 Pulsed RABGAP1L 408-416
Protocol: as §1

[31] = molecular target: T14, HLA-A*02:01 presenting SMIM11A 4-12 peptide (…) (human); assay: flow cytometry, peptide-pulsed T2 cells
T14 construct: On peptide-pulsed T2 cells; also called T2 Pulsed SMIM11A 4-12
Protocol: as §1

[32] = molecular target: T15, HLA-A*02:01 presenting MAGE-A4 286-294 peptide (…) (human); assay: flow cytometry, peptide-pulsed T2 cells
T15 construct: On peptide-pulsed T2 cells
Protocol: as §1

[33] = molecular target: T2, HLA-A*02:01 presenting PLEKHH2 790-798 …; assay: flow cytometry, peptide-pulsed T2 cells; remark: listed apart in the source
[34] = molecular target: T3, HLA-A*02:01 presenting NBAS 2063-2071 …; assay: flow cytometry, peptide-pulsed T2 cells; remark: listed apart in the source
[35] = molecular target: T4, HLA-A*02:01 presenting TEP1 2156-2164 …; assay: flow cytometry, peptide-pulsed T2 cells; remark: listed apart in the source
[36] = molecular target: T5, HLA-A*02:01 presenting PSME2 145-153 …; assay: flow cytometry, peptide-pulsed T2 cells; remark: listed apart in the source
[37] = molecular target: T6, HLA-A*02:01 presenting PCDHGC3 337-345 …; assay: flow cytometry, peptide-pulsed T2 cells; remark: listed apart in the source
[38] = molecular target: T7, HLA-A*02:01 presenting FN1 2182-2190 …; assay: flow cytometry, peptide-pulsed T2 cells; remark: listed apart in the source
[39] = molecular target: T1, HLA-A*02:01 presenting HEATR5A …; assay: flow cytometry, peptide-pulsed T2 cells; remark: listed apart in the source
[40] = molecular target: T8, HLA-A*02:01 presenting MRPL37 334-342 …; assay: flow cytometry, peptide-pulsed T2 cells; remark: listed apart in the source
[41] = molecular target: T10, HLA-A*02:01 presenting CARD8 170-178 …; assay: flow cytometry, peptide-pulsed T2 cells; remark: listed apart in the source
[42] = molecular target: T12, HLA-A*02:01 presenting CNOT1 1965-1973 …; assay: flow cytometry, peptide-pulsed T2 cells; remark: listed apart in the source
[43] = molecular target: T13, HLA-A*02:01 presenting RABGAP1L 408-416 …; assay: flow cytometry, peptide-pulsed T2 cells; remark: listed apart in the source
[44] = molecular target: T14, HLA-A*02:01 presenting SMIM11A 4-12 …; assay: flow cytometry, peptide-pulsed T2 cells; remark: listed apart in the source

B1: bsAb6054 (bispecific antibody, V domains shown)
VH 1: QVQLVESGGGLVKPGGSLRLSCAASGFTFSEYYLTWIRQAPGKGLDWIAYISSSGYNIYYADSVKDRFTISRDNGKNSLFLQMNNLRAEDTAVYFCAREGVTDGMDVWGQGTTVTVSS
VH 2: EVQLVESGGGLVQPGRSLRLSCAASGFTFADYTMHWVRQAPGKGLEWVSDISWNSGSIAYADSVKGRFTISRDNAKNSLYLQMNSLRTEDTAFYYCAKDSRGYGHYKYLGLDVWGQGTTVTVSS
VL: DIQMTQSPSSLSASVGDRVTITCRASQSIDTFLNWYQQKPGKVPKLLIYAASNLESGVPSRFSGSGSGTVFTLTISRLQPEDFATYYCQQSYSIPPITFGQGTRVEIK
[1]
  EC50, NF-κB luciferase, Jurkat/NF-κB Luc + IM-9: 0.74 nM
  EC50, NF-κB luciferase, Jurkat/NF-κB Luc + U266: 3.1 nM
  Fold Activation, NF-κB luciferase, Jurkat/NF-κB Luc + IM-9: 41.9 fold
  Fold Activation, NF-κB luciferase, Jurkat/NF-κB Luc + U266: 6.3 fold
[2]
  EC50, NF-κB luciferase, Jurkat + IM-9, with 2 nM mAb5705 (anti-CD28): 2.1 nM
  EC50, NF-κB luciferase, Jurkat + U266, with 2 nM mAb5705 (anti-CD28): 6.1 nM
  Fold Activation, NF-κB luciferase, Jurkat + IM-9, with 2 nM mAb5705 (anti-CD28): 28.7 fold
  Fold Activation, NF-κB luciferase, Jurkat + U266, with 2 nM mAb5705 (anti-CD28): 8.6 fold
[3]
  EC50 (M), Jurkat/NF-κB-Luc reporter with pulsed T2 cells: > 2e-08 M
  Fold change, Jurkat/NF-κB-Luc reporter with pulsed T2 cells: 2.8 fold
[4]
  EC50 (M), Jurkat/NF-κB-Luc reporter with pulsed T2 cells: > 2e-08 M
  Fold change, Jurkat/NF-κB-Luc reporter with pulsed T2 cells: 1.3 fold
[5]
  EC50 (M), Jurkat/NF-κB-Luc reporter with pulsed T2 cells: > 2e-08 M
  Fold change, Jurkat/NF-κB-Luc reporter with pulsed T2 cells: 1.2 fold
[6]
  EC50 (M), Jurkat/NF-κB-Luc reporter with pulsed T2 cells: > 2e-08 M
  Fold change, Jurkat/NF-κB-Luc reporter with pulsed T2 cells: 1 fold
[7]
  EC50 (M), Jurkat/NF-κB-Luc reporter with pulsed T2 cells: > 2e-08 M
  Fold change, Jurkat/NF-κB-Luc reporter with pulsed T2 cells: 1 fold
[8]
  EC50 (M), Jurkat/NF-κB-Luc reporter with pulsed T2 cells: > 2e-08 M
  Fold change, Jurkat/NF-κB-Luc reporter with pulsed T2 cells: 1 fold
[9]
  EC50 (M), Jurkat/NF-κB-Luc reporter with pulsed T2 cells: > 2e-08 M
  Fold change, Jurkat/NF-κB-Luc reporter with pulsed T2 cells: 1.2 fold
[10]
  EC50 (M), Jurkat/NF-κB-Luc reporter with pulsed T2 cells: > 2e-08 M
  Fold change, Jurkat/NF-κB-Luc reporter with pulsed T2 cells: 2.4 fold
[11]
  EC50 (M), Jurkat/NF-κB-Luc reporter with pulsed T2 cells: 2.1e-11 M
  Fold change, Jurkat/NF-κB-Luc reporter with pulsed T2 cells: 36 fold
[12]
  EC50 (M), Jurkat/NF-κB-Luc reporter with pulsed T2 cells: > 2e-08 M
  Fold change, Jurkat/NF-κB-Luc reporter with pulsed T2 cells: 1.2 fold
[13]
  EC50 (M), Jurkat/NF-κB-Luc reporter with pulsed T2 cells: 1.3e-09 M
  Fold change, Jurkat/NF-κB-Luc reporter with pulsed T2 cells: 81.1 fold
[14]
  EC50 (M), Jurkat/NF-κB-Luc reporter with pulsed T2 cells: > 2e-08 M
  Fold change, Jurkat/NF-κB-Luc reporter with pulsed T2 cells: 1 fold
[15]
  EC50 (M), Jurkat/NF-κB-Luc reporter with pulsed T2 cells: > 2e-08 M
  Fold change, Jurkat/NF-κB-Luc reporter with pulsed T2 cells: 1 fold
[16]
  EC50 (M), Jurkat/NF-κB-Luc reporter with pulsed T2 cells: > 2e-08 M
  Fold change, Jurkat/NF-κB-Luc reporter with pulsed T2 cells: 1 fold
[17]
  EC50 (M), Jurkat/NF-κB-Luc reporter with pulsed T2 cells: 2e-12 M
  Fold change, Jurkat/NF-κB-Luc reporter with pulsed T2 cells: 78.7 fold

B2: mAbH31339N2 (antibody, human IgG4 S228P, kappa, V domains shown)
VH: QVQLVESGGGLVKPGGSLRLSCAASGFTFSEYYLTWIRQAPGKGLDWIAYISSSGYNIYYADSVKDRFTISRDNGKNSLFLQMNNLRAEDTAVYFCAREGVTDGMDVWGQGTTVTVSS
VL: DIQMTQSPSSLSASVGDRVTITCRASQSIDTFLNWYQQKPGKVPKLLIYAASNLESGVPSRFSGSGSGTVFTLTISRLQPEDFATYYCQQSYSIPPITFGQGTRVEIKR
notes: Fully human form (human constant region); also called parent antibody
[18]
  S/N ratio: 1
[19]
  S/N ratio: 1
[20]
  S/N ratio: 1
[21]
  S/N ratio: 1
[22]
  S/N ratio: 1
[23]
  S/N ratio: 1
[24]
  S/N ratio: 1
[25]
  S/N ratio: 1
[26]
  S/N ratio: 131
[27]
  S/N ratio: 1
[28]
  S/N ratio: 5
[29]
  S/N ratio: 1
[30]
  S/N ratio: 1
[31]
  S/N ratio: 1
[32]
  S/N ratio: 310
[33]
  binding result: no binding
[34]
  binding result: no binding
[35]
  binding result: no binding
[36]
  binding result: no binding
[37]
  binding result: no binding
[38]
  binding result: no binding
[39]
  binding result: no binding
[40]
  binding result: no binding
[41]
  binding result: no binding
[42]
  binding result: no binding
[43]
  binding result: no binding
[44]
  binding result: no binding
